In the DeepSol protein solubility set:

Test: soluble on expression in E. coli; label from the status in PepcDB or PDB records

Row | Sequence | soluble on expression in E. coli
1 | MVAMFLAVAVVLGLATSPTAEGGKATTEEQKLIEDVNASFRAAMATTANVPPADKYKTFEAAFTVSSKRNLADAVSKAPQLVPKLDEVYNAAYNAADHAAPEDKYEAFVLHFSEALRIIAGTPEVHAVKPGA | soluble
2 | MARPIATHDNTFTKAYLQQHCGDLLSFDGQGDLSGWLDDVLTGAGRLNESMASNTKPVSPYLILTQLLTHDTLTVSAVQESLSRKRVALGEPMVSTRYARYVYATVVSASKSVQYHASKAGS | not soluble
3 | MSLTADVDYPLLAKMRSASRRALTSLVDWFGTMAQDLDHQGLTTLAGELVSVARLLDREAVVTRYLTVPAEDATPRIRLIERLVSGKVGAPTLEVLRTAVSKRWSANSDLIDAIEHVSRQALLELAERAGQVDEVEDQLFRFSRILDVQPRLAILLGDCAVPAEGRVRLLRKVLERADSTVNPVVVALLSHTVELLRGQAVEEAVLFLAEVAVARRGEIVAQVGAAAELSDAQRTRLTEVLSRIYGHPVTVQLHIDAALLGGLSIAVGDEVIDGTLSSRLAAAEARLPDEGHHHHHH | soluble
4 | MGSDKIHHHHHHMTSTLPVPEPHQSDSANTDANSLSWEEELDSAIFSFEDIQTELNYKQAQTALRNLVANLDLTPQEKTGLETEIADLETMLGKLDRMVVQIAAFGMVGRGKSSLLNSLVGQTVFETGPLHGVTRTAQTVNWSISEEAIGETERALRVTLPGVGQSQVKLIDTPGLDEVDGATRAVLAEQIAKQADLILFVISGDMTKLEYAALSQLREAGKPIILVFNKVDQYPEADRMAIYHKIRDERVRELLTPLEIVMAAASPLVKTAIRRPDGTRGIQLRTGNAQVEELKLKILEILHREGKALVALNTMLYADVVNEQLIERKLMIREQNANQLIWKAVMTKALAIALNPVTVVDILSSVVIDIALILGLSKLYGFSMTEAGAVQLLQKIALSMGGIGASELLANLGLSGLKTLLGISATATAGVALGPYISVAVTQGGVAGVSSYGIGQVTKVYLANGATWGPDGPKAVINRILANLDETSILNRIKDELLHKVRLRK | not soluble
5 | EKAQLIGPEDADITFVTWGSQKGPILDVIEDLKQDDITANLLYLKMFSPFPTEFVKSILSKAHLVIDVESNFTAQAAQMIKLYTGIEIENKILKYNGRHMTEDEILNSAKNILNK | not soluble
6 | MHHHHHHGHNSNLQDILAANAKWASQMNNIQPTLFPDHNAKGQSPHTLFIGCSDSRYNENCLGVLPGEVFTWKNVANICHSEDLTLKATLEFAIICLKVNKVIICGHTDCGGIKTCLTNQREALPKVNCSHLYKYLDDIDTMYHEESQNLIHLKTQREKSHYLSHCNVKRQFNRIIENPTVQTAVQNGELQVYGLLYNVEDGLLQTVSTYTKVTPK | soluble
7 | MMIMREILISECIELLRSHKFIVSKPLGRSCFDMVASKEDIRLILKILKNIDSLSRDQSKELKKISKILHGTPLIIGIRTRNAPMEHGVVYDRYNIKAVTFETFRDYLEGSPPMVYANRGGFFVKIDGKVLKEVREAMGISVGKLAEVAGVSRKAIYKYETQMANPSVDVALKIEEFLDVPLVKGIDLFEPVDDEDVENKLENLEDFKKEAINFLNELGFKSFVVEKAPFDAVAEKDMDNNLNILLTNIEEKDNEEVKRKALFVRELSRLLDGYSLLILEEKEKEYKNLPVVSIEELKKMDDALELIEHIKSMLRDIR | soluble
8 | MKKIKKAIIPAAGLGTRFLPATKAMPKEMLPILDKPTIQYIVEEAARAGIEDIIIVTGRHKRAIEDHFDSQKELEMVLKEKGKSELLEKVQYSTELANIFYVRQKEQKGLGHAISSARQFIGNEPFAVLLGDDIVESEVPAVKQLIDVYEETGHSVIGVQEVPEADTHRYGIIDPLTKNGRQYEVKKFVEKPAQGTAPSNLAIMGRYVLTPEIFDYLKTQKEGAGNEIQLTDAIERMNNDNQVYAYDFEGERYDVGEKLGFVKTTIEYALKDDSMREELTRFIKALGL | not soluble
9 | MHFTPALKPGKLLKRYKRFLADVQLEDGSEITVHCPNTGSMRNCLFPGETLWFSTSSNTKRKYAHTWELMTTPTGALIGIHSGNANALVEEALNKGIITELTGYDSLRREVKYGDENSRIDILLECAQKTACYIEVKSCTLQENGQGYFPDAVSLRGQKHLRELMHMASLGHRAVLLFVVQHTDIMSVAPAAHIDPEYANLLKKSVLSGVEVLAYRCEISPSEIHLAQSCPVRV | soluble
10 | MGSSHHHHHHSSGLVPRGSHMASMGRIESAFDLGFIRGMTFGFVGQHGTWGTDEARASMRALAEQPFNWVTLAFAGLMEHPGDPAIAYGPPVTVSDDEIASMAELAHALGLKVCLKPTVNCRDGTWRGEIRFEKEHGPDLESWEAWFGSYSDMMAHYAHVAKRTGCEMFCVGCEMTTAEPHEAMWRETIARVRTEYDGLVTYNCNHGREEHVRFWDAVDLISSSAYYPIDRWRDRVPVLREVAEAHEKPLFFMEVGCPSRSGSGACPWDYRHPGAVCLDEQARFYEAMFAAMPDEPWFKGYMLWEWPWKLYPREAASEDGSYCIYGKPAEDVVARAFSAIANR | soluble
11 | MSLDYANGNHVLIIPKYKGSLLFTKHKIRGIEFPGGKREKGEASETAAAREVFEETGATIKYCEYIAQYKVDRQIGMSFTKDVFMVEIEAITEQPDYFETDGPLLYKSLSEIPEDKKSYLLKDPAILQCLERVIELGFYSEGHHHHHH | not soluble
12 | MGSDKIHHHHHHMATPETILSVKDLRVRFRTLDGAVEAVKGINIHVNAGETVAVVGESGSGKSQTMMAAMSLLASNGEATGSVDYRGRNLLTLSKSDLNKVRGAKISMIFQEPMTSLDPLYSIGNQLIEPIRRHRGLNAAEAREEALKLLRLVHIPDPERRMKSYPHEMSGGQRQRVMIAMALANDPDILIADEPTTALDVTIQAQILMLLAELQRKLGMAIVFITHDLGIVRRFADRVYVMRQGEVVEEGEAGAIFANPQHAYTKMLLAAEPTGSKAAPPANAPVVLEGRHVEVTFKIGGGFLAGEPLMLRAVDDISIRLQRNQTIGIVGESGSGKSTLGRALLRLLPSDGLIRFGDRDISTADRQAMRPLRRQMQLVFQDPFGSLSPRMTVGQVITEGLLVHEPNLSGKQRDQRAVEALREVGLDPNARNRYPHEFSGGQRQRIAIARAMILKPKMVVLDEPTSALDRSVQKQIVELLRKLQADHELSYLFISHDLSVVRAMADYIIVMKQGKIVEEGPTEAIFSNPQHVYTQTLMAAAIDVTRFRLSA | not soluble
13 | MTRGPIFLNVGISYGLPRTKLPAAVSFRKWVAATLQGRIRKADLAIRIVDEKEGRALNYHYRNKDYATNVLSFPAQLPEPLPKALKIPLLGDIVMCAPVIAREAAEQGKSLSAHYAHLTVHGTLHLLGWNHEDHQEADAMEQLEREILANLGISDPYLEEY | soluble
14 | MSKILDVQGIVKRATELNDFGHLLEHVPYAKFIGMKVERFGDELIFKLPAKDDNIGNPILPAIHGGVIAGFMEMSAIVQLMVFMQTAKVPKVVDFSIDYLRAGLHKDSFAECRITRQGRRVANVSINCWQTNRKQLIATARAHFLIDLEHHHHHH | not soluble
15 | IPELKDHLRIFRPRKLTLKGYRQHWVVFKETTLSYYKSQDEAPGDPIQQLNLKGCEVVPDVNVSGQKFCIKLLVPSPEGMSEIYLRCQDEQQYARWMAGCRLASKGRTMADSSYTSEVQAILAFLSLQRT | soluble
16 | MAKHHPLTDWLPTSKKEMEAKGWDEADVILFSGDAYVDHPSFGAAVVGRILEAEGLRVAIVPQPNWRDDLRDFRKLGRPRLFFGVSAGAMDSMVNKYTANRRLRSEDAYTPDRRSDMRPDYPTIVYTRILKELFPDVPVIVGGIEASLRRLTHYDYWQDKLLPGILYQSGADLLIYGMGELPLHEIAQRLIAGEPFDSLKSIRQIAYLVPKGKTPVPCENDRHLFSHEECLSDKRKQAQNFREIEIQSNRYEADRILQAVGDSTIVVNPPFPPMSTAQIDQSFDLPYTRLPHPRYKGKIISAYEMIKHSVNVHRGCFGGCAFCTISAHQGKFIASRSEASVLREVKEITEMEDFKGYLSDVGGPSANMYKMQGYDLSICKRCKKPSCIHPNVCPNLNADHRPLLDLLRRIDKNPKIKKSFIGSGVRMDLLLHNYKDKVLKKAADEYTEDLIVKHVSGRLKVAPEHSSDRVLNLMRKPPFRQFAEFTKRFQRINEAHGLRQQLIPYFISSHPGCTEEDMAELAILTKKLDFKLEQIQDFTPTPMTLATEMYYTGYHPYTLQPVYTAIKKEEKMRQHMFFFWYKREEADKIRRELHRIGRPDLIAKLFDRTTSSRNDRHTPPSTQPRKSKSKSRHS | not soluble
17 | MATSGFKHLVVVKFKEDTKVDEILKGLENLVSQIDTVKSFEWGEDKESHDMLRQGFTHAFSMTFENKDGYVAFTSHPLHVEFSAAFTAVIDKIVLLDFPVAAVKSSVVATP | soluble
18 | MQRIVIVGGGVGGTMLANLLVVRLYPEILGGEVQVLLISDSPDHYYKPAFMYVAFEQFFLEDLKRPQRSLLRPEVMFQLDRVDRFDFPRQELQTRSGRRHGYDYLVIATGCVPAPERIEGLKEAGDHFYQYQPARRLAERLASLESGRVFITVSFPRTPNVPHQCGIAPVETTLMLDDYLRRRGVRERVEIVYTYPTTAQLLRNCLFLQRPTCEILPSLFEQRGIRFQRGFTLARVDPERRIAYSEEGDEQPFDLLMATPPIHAVDAVRECGLPQAAADEGWLPTNHETLQVYGVDRVYTLGDTVDLPVSKAGGACHNQAPVVASNIAAEIRLGKPCAIYDGRVQAVAQMGLNAGMPLWYDYRHDVKPTPPTKLGGLLRQGFNRGLYWAVARGMLLEHHHHHH | soluble
19 | MAHHHHHHMASSALDEMKEQMLRRWKEDQKKIDDLRKKHGHEKLCDATIDAVYGGMRGITGLVYEPSLLDPAEGIRFRGLTILECQEMLPKAPGGKEPLPEAMFWLLMTGEVPTEEQVRGLNAELHRRADPEAIAAAQKAIAALPRNAHPMTAFSVGVLALQSYSKFAAAYAAGKSNKKTYWEYALEDSLDMLARTPAVVAMICNRETKGQVELAAPSNSDLDWAANFAKMMGYQDEEFWECMRLYLSVHADHEGGNVSAHTTTLVASALSDPYLAFSAGLNGLAGPLHGLANQEVLNYLLSMQERVKADGVNMHDEAALEKALSNYTWELLNSGQVVPGYGHAVLRKVDPRYTCLRNFCLRHKFDDDLFKLVNTIYLIMPGILKEHGKTKNPYPNVDAHSGVLLQHYGMTNQNCYPVLFGLSRQMGVLAGVVWDRLQGRPLERPKSITTEMLAKKYLCNSL | not soluble
20 | GAMESHPHIQLLKSNRELLVTHIRNTQCLVDNLLKNDYFSAEDAEIVCACPTQPDKVRKILDLVQSKGEEVSEFFLYLLQQLADAYVDLRPWLLEIGFSPSLLTQSKVVVNTDPVSRYTQQLRHHLG | soluble
21 | SDHVDLPYNLTATKIDSDVFVVTDRDFYSSNVLVAKMLDGTVVIVSSPFENLGTQTLMDWVAKTMKPKKVVAINTHFHLDGTGGNEIYKKMGAETWSSDLTKQLRLEENKKDRIKAAEFYKNEDLKRRILSSHPVPADNVFDLKQGKVFSFSNELVEVSFPGPAHSPDNVVVYFPKKKLLFGGCMIKPKELGYLGDANVKAWPDSARRLKKFDAKIVIPGHGEWGGPEMVNKTIKVAEKAVGEMRL | soluble
22 | MSISGIGSYAASMLTPSRGSAGTSASAAATAADNTPATKSGSGGVQKTDFTQMTHKQLFDWVNSKIASGEMSFDESSTFISMTVSMPVDGSSMAPDDKQPVNFMQSVRDGMERALQTNDSDLFARLQTALHTMQRSQGEVRGVNMTV | not soluble
23 | PATSRFYEQHADCLAEQYTSLKFEDVHASWRAFWPQARDRVLDVGAGSGRDAKWMAEHGCEVIAIEPAQALLRFGKSYCGDSVTWLEDGLPKLEKTINLGFRFDLILVSAVWMHLAPTHRERAFRKLANLLAPNGRLVISLRHGDFSDGRKAYPVSVEELEKFAKNRALMVRNVSLDDDQLQ | not soluble
24 | MDDIRCAIIIDPDLPPGVIANTAAVLAMSLGKRHPELVGQDLPDARGQPRQGITTVPIPVLKGGADQLRALRAAASETGLTLVELTSATRFTRSYQEYAAALAATPEEMVEYQGLALCGPGKRVRQLTGSLGLLRLEHHHHHH | not soluble
